# In patent publication US20230220067A1 (Johns Hopkins, published 2023):
# B1: afucosyl humanized KCNK9 monoclonal antibody AF-H4L3 (antibody, V domains shown)
# VH: QVQLVQSGAEVKKPGASVKVSCKASGYSFTGYYMYWVRQAPGQRLEWMGEINPSSGGTTYNQKFKARVTLTVDKSASTAYMELSSLRSEDTAVYYCARSGLRRRFYAMDYWGQGTLVTVSS
# VL: EIVLTQSPATLSLSPGERATLSCRASESVDSFGTTFMHWYQQKPGQPPRLLIYRASNLESGIPARFSGSGSRTDFTLTISSLEPEDFATYYCQQSNKDPPTFGGGTKVEIK
# modifications: afucosyl N-glycan on the Fc region (made in fut8-/- CHO cells)
# B2: afucosyl humanized KCNK9 monoclonal antibody AF-H5L2 (antibody, V domains shown)
# VH: QVQLVQSGAEVKKPGASVKVSCKASGYSFTGYYMYWVRQAPGQRLEWIGEINPSSGGTTYNQKFKARATLTVDKSASTAYMELSSLRSEDTAVYYCARSGLRRRFYAMDYWGQGTLVTVSS
# VL: EIVLTQSPATLSLSPGERATLSCRASESVDSFGTTFMHWYQQKPGQAPRLLIYRASNLESGIPARFSGSGSRTDFTLTISSLEPEDFAVYYCQQSNKDPPTFGGGTKVEIK
# modifications: afucosyl N-glycan on the Fc region (made in fut8-/- CHO cells)
# B3: chimeric KCNK9 antibody (antibody, V domains shown)
# VH: EVQLQQSGPELVKPGASVKTSCKASGYSFTGYYMYWVKQSPEKSLEWIGEINPSSGGTTYNQKFKAKATLTVDKSSSTAYMQLKSLTFEDSAVYYCARSGLRRRFYAMDYWGQGTSVTVSS
# VL: DIVLTQSPASLAVSLGQRATVSCRASESVDSFGTTFMHWYQQKPGQPPKLLIYRASNLESGIPARFSGSGSRTDFTLTINPVEADDVATYYCQQSNKDPPTFGGGSKLEIK
# notes: Variable regions of the mouse anti-KCNK9 monoclonal antibody (mu-mAb) fused with human antibody IgG1 constant regions; also called chimeric antibody; chimeric KCNK9 monoclonal antibody
# B4: humanized KCNK9 antibody clone H4L3 (antibody, V domains shown)
# VH: QVQLVQSGAEVKKPGASVKVSCKASGYSFTGYYMYWVRQAPGQRLEWMGEINPSSGGTTYNQKFKARVTLTVDKSASTAYMELSSLRSEDTAVYYCARSGLRRRFYAMDYWGQGTLVTVSS
# VL: EIVLTQSPATLSLSPGERATLSCRASESVDSFGTTFMHWYQQKPGQPPRLLIYRASNLESGIPARFSGSGSRTDFTLTISSLEPEDFATYYCQQSNKDPPTFGGGTKVEIK
# notes: Variable regions cloned into a human IgG1 expression vector; produced in 293 cells
# B5: humanized KCNK9 antibody clone H5L2 (antibody, V domains shown)
# VH: QVQLVQSGAEVKKPGASVKVSCKASGYSFTGYYMYWVRQAPGQRLEWIGEINPSSGGTTYNQKFKARATLTVDKSASTAYMELSSLRSEDTAVYYCARSGLRRRFYAMDYWGQGTLVTVSS
# VL: EIVLTQSPATLSLSPGERATLSCRASESVDSFGTTFMHWYQQKPGQAPRLLIYRASNLESGIPARFSGSGSRTDFTLTISSLEPEDFAVYYCQQSNKDPPTFGGGTKVEIK
# notes: as for B4
# Key:
# human FcγIII = human FcγIII (human, UniProt P08637 17-254); test: cell-based or functional assay
# human FcγIII, sequence (P08637 17-254): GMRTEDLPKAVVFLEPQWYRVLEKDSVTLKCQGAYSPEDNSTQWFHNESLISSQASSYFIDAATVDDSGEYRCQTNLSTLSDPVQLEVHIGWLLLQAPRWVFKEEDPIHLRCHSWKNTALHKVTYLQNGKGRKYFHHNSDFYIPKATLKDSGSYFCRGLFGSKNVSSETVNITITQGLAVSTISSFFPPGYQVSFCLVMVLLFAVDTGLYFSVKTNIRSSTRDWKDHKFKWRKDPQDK
# [1] = molecular target: T1, potassium two pore domain channel subfamily K member 9 (KCNK9) (human, UniProt Q9NPC2 1-374); test: flow cytometry on induced KCNK9-expressing HEK293 cells, anti-human Fc FITC secondary
# T1 construct: whole, on cells; also called human KCNK9
# T1 sequence (Q9NPC2 whole entry, the tested form may be a part): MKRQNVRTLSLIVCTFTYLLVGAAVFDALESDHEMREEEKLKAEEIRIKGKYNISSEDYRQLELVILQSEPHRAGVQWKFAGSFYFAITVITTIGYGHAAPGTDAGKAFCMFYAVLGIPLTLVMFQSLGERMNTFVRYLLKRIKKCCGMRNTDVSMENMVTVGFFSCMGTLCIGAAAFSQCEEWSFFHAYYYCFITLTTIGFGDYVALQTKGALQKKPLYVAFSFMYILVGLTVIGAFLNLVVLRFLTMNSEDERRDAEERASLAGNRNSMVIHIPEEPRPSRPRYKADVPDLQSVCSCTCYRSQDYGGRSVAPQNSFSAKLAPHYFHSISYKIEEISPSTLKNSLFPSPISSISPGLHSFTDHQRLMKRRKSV
# Text: An anti-KCNK9 mouse monoclonal antibody having a VH amino acid sequence of SEQ ID NO: 1 and a VL amino acid sequence of SEQ ID NO: 2 (mu-mAb) was humanized using a method based on Queen et al., Proc. Natl. Acad. Sci. USA, 86: 10029-10033 (1989). The hybridoma antibody was sequenced after amplifying the antibody variable regions by RT-PCR with degenerate primers. The variable regions were fused with the human antibody IgG1 constant regions to produce a chimeric antibody. Antigen binding of the chimeric antibody was confirmed by staining of the KCNK9-expressing cells. HEK293 cells were stably transfected with KCNK9 expression vector under the tetracycline inducible promoter. After induction, the cells were incubated with various concentrations of chimeric KCNK9 antibody for 30 minutes, followed by secondary anti-human Fc FITC conjugate. Chimeric antibody binding was analyzed by flow cytometry.
# [2] = molecular target: T1, potassium two pore domain channel …; test: flow cytometry of KCNK9-expressing cells, anti-human Fc PE secondary
# Text: After antibody sequence analysis and structure modeling, the murine antibody CDRs (SEQ ID NOs: 3-8) were grafted into human antibody VK3-11 and VH1-3 frameworks. Critical murine antibody framework residues that support CDR conformation were identified and introduced into the human frameworks. Five variants of the humanized VH sequences (VH1-5; SEQ ID NOs: 9-13) and three variants of the humanized VL variants (VL1-3; SEQ ID NOs: 14-16) were designed and synthesized. All of the variable regions were cloned into a human IgG1 expression vector. The VHs and VLs were cross-matched to generate 15 humanized KCNK9 antibody clones. All humanized antibodies were produced by transient transfection in 293 cells and purified by Protein A chromatography. Antigen binding of the humanized KCNK9 antibodies was characterized by immunofluorescence staining of KCNK9-expressing cells.
binder,measurement,setting,value
B1,ADCC activity (lysis of KCNK9-expressing HEK293 target cells by NK92-3F9 effector cells),human FcγIII,100 fold
B2,ADCC activity (lysis of KCNK9-expressing HEK293 target cells by NK92-3F9 effector cells),human FcγIII,100 fold
B3,EC50,[1],~0.3 µg/mL
B4,binding result,[2],binds
B5,binding result,[2],binds
